Residue numbers refer to the chain shown, from its start. Where two headings read alike, the source gives them in different places.
Assays:
[1] = target: T1, human CEACAM5 expressed on human cancer cell lines (MKN-45, NCI-H441, SK-CO-1, SNU-16, LS174T) (human, UniProt P06731 35-685); experiment: cell-based or functional assay
T1 sequence: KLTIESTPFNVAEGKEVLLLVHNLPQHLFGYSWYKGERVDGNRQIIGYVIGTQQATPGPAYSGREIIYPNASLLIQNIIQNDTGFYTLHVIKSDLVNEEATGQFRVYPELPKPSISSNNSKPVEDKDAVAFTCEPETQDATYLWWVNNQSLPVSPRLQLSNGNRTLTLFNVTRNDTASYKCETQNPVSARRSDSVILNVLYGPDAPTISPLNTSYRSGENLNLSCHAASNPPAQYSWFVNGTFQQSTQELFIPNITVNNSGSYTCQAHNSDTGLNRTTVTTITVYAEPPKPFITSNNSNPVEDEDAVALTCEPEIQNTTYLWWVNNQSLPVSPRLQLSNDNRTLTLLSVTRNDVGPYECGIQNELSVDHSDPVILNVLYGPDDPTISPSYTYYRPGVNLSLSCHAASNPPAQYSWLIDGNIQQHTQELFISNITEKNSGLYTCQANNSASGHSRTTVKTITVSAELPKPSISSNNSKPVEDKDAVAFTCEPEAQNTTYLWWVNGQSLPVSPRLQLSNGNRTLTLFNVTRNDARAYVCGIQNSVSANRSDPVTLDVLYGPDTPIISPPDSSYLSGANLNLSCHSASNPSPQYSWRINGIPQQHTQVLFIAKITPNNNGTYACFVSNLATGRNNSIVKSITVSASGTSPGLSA

[2] = target: T1, human CEACAM5 expressed on human cancer …; experiment: cell-based or functional assay; remark: listed apart in the source
[3] = target: T1, human CEACAM5 expressed on human cancer …; experiment: flow cytometry on MKN-45 cells, antibody titrated
[4] = target: T1, human CEACAM5 expressed on human cancer …; experiment: cell-based or functional assay; remark: listed apart in the source
[5] = target: T1, human CEACAM5 expressed on human cancer …; experiment: cell-based or functional assay; remark: listed apart in the source
[6] = target: T1, human CEACAM5 expressed on human cancer …; experiment: cellular binding on MKN45 cells (FIG. 2)
[7] = target: T1, human CEACAM5 expressed on human cancer …; experiment: binding to MKN-45 cells

B1: ADC1-M (conjugate of mAb1-M with DL1) (antibody, human IgG1, kappa, L234A L235A)
heavy: EVQLQESGPGLVKPSQTLSLTCTVSDGSVSRGGYYLTWIRQHPGKGLEWIGYIYYSGSTYFNPSLRSRVTMSVDTSKNQFSLKLSSVTAADTAVYYCARGIAVAPFDYWGQGTLVTVSSASTKGPSVFPLAPSSKSTSGGTAALGCLVKDYFPEPVTVSWNSGALTSGVHTFPAVLQSSGLYSLSSVVTVPSSSLGTQTYICNVNHKPSNTKVDKRVEPKSCDKTHTCPPCPAPEAAGGPSVFLFPPKPKDTLYITREPEVTCVVVDVSHEDPEVKFNWYVDGVEVHNAKTKPREEQYNSTYRVVSVLTVLHQDWLNGKEYKCKVSNKALPAPIEKTISKAKGQPREPQVYTLPPSREEMTKNQVSLTCLVKGFYPSDIAVEWESNGQPENNYKTTPPVLDSDGSFFLYSKLTVDKSRWQQGNVFSCSVMHEALHNHYTQKSLSLSPG
light: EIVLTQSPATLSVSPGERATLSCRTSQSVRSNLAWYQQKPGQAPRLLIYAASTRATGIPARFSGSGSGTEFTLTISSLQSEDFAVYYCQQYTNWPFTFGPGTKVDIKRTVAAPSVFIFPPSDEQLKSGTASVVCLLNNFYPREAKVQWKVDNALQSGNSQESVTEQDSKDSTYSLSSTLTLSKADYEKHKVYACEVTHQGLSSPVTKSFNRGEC
modifications: DL1 by interchain cysteine conjugation; DL1 (maleimido-b-glucuronide-exatecan) by interchain cysteine conjugation; DAR 8.16
B1 was tested, and the “SPECIFICITY FACTOR (IC50 in CEACAM5-negative MDA-MB-231 divided by IC50 in MKN-45)” value [1] was 201 fold, the “SPECIFICITY FACTOR (IC50 in CEACAM5-negative MDA-MB-231 divided by IC50 in SK-CO-1)” value [1] was 874 fold and the “SPECIFICITY FACTOR (IC50 in CEACAM5-negative MDA-MB-231 divided by IC50 in SNU-16)” value [1] was 242 fold. For the same binder, the “IC50 [M], cell viability assay (Cell Titer-Glo, 6 days), LS174T cells” value (“IC50 [M], cell viability assay … LS174T cells” for short) [2] was 6e-10 M, the “IC50 [M], cell viability assay (Cell Titer-Glo, 6 days), MKN-45 cells” value (“IC50 [M], cell viability assay … MKN-45 cells” for short) [2] was 5.2e-10 M and the “IC50 [M], cell viability assay (Cell Titer-Glo, 6 days), SK-CO-1 cells” value (“IC50 [M], cell viability assay … SK-CO-1 cells” for short) [2] was 7.6e-11 M. The “IC50 [M], cell viability assay (Cell Titer-Glo, 6 days), SNU-16 cells” value (from here on “IC50 [M], cell viability assay … SNU-16 cells”) [2] was 3.6e-10 M.

B2: ADC2-M (conjugate of mAb2-M with DL1-M) (antibody, human IgG1, kappa, L234A L235A)
heavy: B1 heavy
light: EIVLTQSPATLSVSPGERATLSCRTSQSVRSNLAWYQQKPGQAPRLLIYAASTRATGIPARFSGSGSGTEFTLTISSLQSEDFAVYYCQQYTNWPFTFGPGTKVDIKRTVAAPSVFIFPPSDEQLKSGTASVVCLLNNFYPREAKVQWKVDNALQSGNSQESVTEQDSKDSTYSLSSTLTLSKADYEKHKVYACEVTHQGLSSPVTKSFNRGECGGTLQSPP
modifications: MTG tag GGTLQSPP at the C-terminus is a conjugation site for DL1-M; DL1-M (NH2-GGG-b-glucuronide-exatecan) coupled by microbial transglutaminase; DAR 3.86 for the whole antibody; residues carrying the drug not stated
B2 was tested, and the “SPECIFICITY FACTOR (IC50 in MDA-MB-231, set to 100 nM, divided by IC50 in MKN-45)” value [1] was greater than 167 fold, the “SPECIFICITY FACTOR (IC50 in MDA-MB-231, set to 100 nM, divided by IC50 in SK-CO-1)” value [1] was greater than 632 fold and the “SPECIFICITY FACTOR (IC50 in MDA-MB-231, set to 100 nM, divided by IC50 in SNU-16)” value [1] was greater than 207 fold. The “IC50 [M], cell viability assay … LS174T cells” value [2] was 8.5e-10 M, the “IC50 [M], cell viability assay … MKN-45 cells” value [2] was 1.2e-09 M and the “IC50 [M], cell viability assay … SK-CO-1 cells” value [2] was 1.1e-10 M. The “IC50 [M], cell viability assay … SNU-16 cells” value [2] was 5.1e-09 M.

B3: Rituximab (antibody, human IgG1, kappa, V domains shown)
VH: QVQLQQPGAELVKPGASVKMSCKASGYTFTSYNMHWVKQTPGRGLEWIGAIYPGNGDTSYNQKFKGKATLTADKSSSTAYMQLSSLTSEDSAVYYCARSTYYGGDWYFNVWGAGTTVTVSA
VL: QIVLSQSPAILSASPGEKVTMTCRASSSVSYIHWFQQKPGSSPKPWIYATSNLASGVPVRFSGSGSGTSYSLTISRVEAEDAATYYCQQWTSNPPTFGGGTKLEIKR
notes: also called mAb4-M; anti-CD20 control antibody
B3: no binding (tested: 2000 nM) [3].

B4: ADC1 (mAb1-glucuronid-exatecan) (antibody, human IgG1, kappa)
heavy: EVQLQESGPGLVKPSQTLSLTCTVSDGSVSRGGYYLTWIRQHPGKGLEWIGYIYYSGSTYFNPSLRSRVTMSVDTSKNQFSLKLSSVTAADTAVYYCARGIAVAPFDYWGQGTLVTVSSASTKGPSVFPLAPSSKSTSGGTAALGCLVKDYFPEPVTVSWNSGALTSGVHTFPAVLQSSGLYSLSSVVTVPSSSLGTQTYICNVNHKPSNTKVDKRVEPKSCDKTHTCPPCPAPPVAGPSVFLFPPKPKDTLMISRTPEVTCVVVDVSHEDPEVKFNWYVDGVEVHNAKTKPREEQYNSTYRVVSVLTVLHQDWLNGKEYKCKVSNKALPSSIEKTISKAKGQPREPQVYTLPPSREEMTKNQVSLTCLVKGFYPSDIAVEWESNGQPENNYKTTPPVLDSDGSFFLYSKLTVDKSRWQQGNVFSCSVMHEALHNHYTQKSLSLSPG
light: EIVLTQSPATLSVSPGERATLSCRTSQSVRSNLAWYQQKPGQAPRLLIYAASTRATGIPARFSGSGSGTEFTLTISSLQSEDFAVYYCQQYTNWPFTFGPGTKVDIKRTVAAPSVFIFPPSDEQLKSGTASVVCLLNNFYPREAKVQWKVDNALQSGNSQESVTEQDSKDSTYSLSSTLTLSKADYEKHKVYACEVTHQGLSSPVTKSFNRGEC
modifications: drug-linker DL1 on the reduced interchain cysteine; drug-linker DL1 (maleimido-beta-glucuronide-exatecan) on sulfur of reduced interchain cysteines; DAR 7.9 for the whole antibody
With B4 the “IC50 [M], cell viability assay … LS174T cells” value [4] was 3.8e-10 M, the “IC50 [M], cell viability assay … MKN-45 cells” value [4] was 6.2e-10 M and the “IC50 [M], cell viability assay … SK-CO-1 cells” value [4] was 8.5e-11 M. The “IC50 [M], cell viability assay … SNU-16 cells” value [4] was 3.2e-10 M and the “fold higher potency than ADC SAR DM4 against SK-CO-1 cells (viability assay)” value [5] was 2.9 fold.

B5: ADC2 (mAb1-AAN-exatecan) (antibody, human IgG1, kappa)
heavy: B4 heavy
light: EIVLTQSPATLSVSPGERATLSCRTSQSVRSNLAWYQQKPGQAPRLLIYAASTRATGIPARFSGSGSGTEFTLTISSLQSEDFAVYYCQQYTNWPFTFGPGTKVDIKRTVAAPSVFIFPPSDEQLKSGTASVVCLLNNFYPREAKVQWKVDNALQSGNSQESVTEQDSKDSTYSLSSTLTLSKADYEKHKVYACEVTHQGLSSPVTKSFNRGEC
modifications: drug-linker DL2 on the reduced interchain cysteine; drug-linker DL2 (legumain-cleavable Ala-Ala-Asn linker, exatecan) on reduced interchain cysteines; DAR 7.6 for the whole antibody
In the case of B5, the “IC50 [M], cell viability assay … LS174T cells” value [4] is reported as 2.8e-10 M, the “IC50 [M], cell viability assay … MKN-45 cells” value [4] is reported as 4.7e-10 M and the “IC50 [M], cell viability assay … SK-CO-1 cells” value [4] is reported as 6.9e-11 M. The “IC50 [M], cell viability assay … SNU-16 cells” value [4] was 2.8e-10 M and the “fold higher potency than ADC SAR DM4 against SK-CO-1 cells (viability assay)” value [5] was 2.7 fold.

B6: hmn-14 (hMN14, antibody of labetuzumab govitecan) (antibody, human IgG1, kappa, V domains shown)
VH: EVQLVESGGGVVQPGRSLRLSCSASGFDFTTYWMSWVRQAPGKGLEWIGEIHPDSSTINYAPSLKDRFTISRDNAKNTLFLQMDSLRPEDTGVYFCASLYFGFPWFAYWGQGTPVTVSS
VL: DIQLTQSPSSLSASVGDRVTITCKASQDVGTSVAWYQQKPGKAPKLLIYWTSTRHTGVPSRFSGSGSGTDFTFTISSLQPEDIATYYCQQYSLYRSFGQGTKVEIKR
B6 gave an EC50 [6] of 11.8 nM.

B7: Variant 1 (VH1.00/VL1.00) (antibody, V domains shown)
VH: EVQLQESGPGLVKPSQTLSLTCTVSDGSVSRGGYYLTWIRQHPGKGLEWIGYIYYSGSTYFNPSLRSRLTMSVDTSKNQFSLKLSSVTAADTAVYYCARGIAVAPFDYWGQGTLVTVSS
VL: ETTLTQSPATLSVSPGERATLSCRTSQSVRSNLAWYQQKPGQAPRLLIYAASTRATGIPARFSGSGSGTEFTLTIGSLQSEDFAVYFCQQYTNWPFTFGPGTKVEIKR
notes: also called optimized antibody Variant 1
B7: binds [7].

B8: Variant 6 (VH1.02/VL1.00) (antibody, V domains shown)
VH: B7 VH with L69V
VL: B7 VL
notes: also called optimized antibody Variant 6
B8: binds [7].

— US20250179210A1 (Merck KGaA, published 2025)
